Experimental data published in patent US20230040065A1 (Janssen / Centocor, published 2023).

Experiments:
recombinant human TNFα [1] = molecular target: T1, recombinant human TNFα (human, UniProt P01375 77-233, 125I label in the receptor binding assay); test: cell-based or functional assay
recombinant human TNFα [2] = molecular target: T1, recombinant human TNFα; test: inhibition of 125I-TNFα binding to plate-coated p55-sf2, hybridoma supernatants
Experimental: (§1) 50:1 of p55-sf2 at 0.5:g/ml in PBS was added to Optiplates to coat the wells during a one-hour incubation at 37° C. Serial dilutions of the eight TNV cell supernatants were prepared in 96-well round-bottom plates using PBS/0.1% BSA as diluent. […] The mixture was preincubated for one hour at RT. The coated Optiplates were washed to remove unbound p55-sf2 and 50:1 of the ¹²⁵I-TNFα/cell supernatant mixture was transferred to the Optiplates. After 2 hrs at RT, Optiplates were washed three times with PBS-Tween. […] of Microscint-20 was added and the cpm bound determined using the TopCount gamma counter.
A simple binding assay was done to determine whether the eight TNV mAbs contained in hybridoma cell supernatant were capable of blocking TNFα binding to receptor. The concentrations of the TNV mAbs in their respective cell supernatants were first determined by standard ELISA analysis for human IgG.

recombinant human TNFα [3] = molecular target: T1, recombinant human TNFα; test: inhibition of 125I-TNFα (5 ng/ml) binding to plate-coated p55-sf2; hybridoma supernatant preincubated with 125I-TNFα, cpm bound counted
Experimental: Varying amounts of hybridoma cell supernatants containing known amounts of TNV mAb were preincubated with a fixed concentration (5 ng/ml) of ¹²⁵I-labeled TNFα. […] The amount of TNFα that bound to the p55 receptor in the presence of the mAbs was determined after washing away the unbound material and counting using a gamma counter. Although eight TNV mAb samples were tested in these experiments, for simplicity three of the mAbs that were shown by DNA sequence analyses to be identical to one of the other TNV mAbs (see Section 5.2.2) are not shown here. Each sample was tested in duplicate. The results shown are representative of two independent experiments.
as §1

T1 sequence (P01375 77-233 limits assumed): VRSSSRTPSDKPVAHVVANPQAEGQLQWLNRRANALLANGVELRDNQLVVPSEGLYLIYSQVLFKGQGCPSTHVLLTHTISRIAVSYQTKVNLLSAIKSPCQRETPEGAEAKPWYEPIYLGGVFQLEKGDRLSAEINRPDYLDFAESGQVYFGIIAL

B1: TNV148 (GenTNV148.26.12) (antibody, human IgG1, kappa, V domains shown)
VH: QVQLVESGGGVVQPGRSLRLSCAASGFIFSSYAMHWVRQAPGNGLEWVAFMSYDGSNKKYADSVKGRFTISRDNPKNTLYLQMNSLRAEDTAVYYCARDRGIAAGGNYYYYGMDVWGQGTTVTVSS
VL: EIVLTQSPATLSLSPGERATLSCRASQSVYSYLAWYQQKPGQAPRLLIYDASNRATGIPARFSGSGSGTDFTLTISSLEPEDFAVYYCQQRSNWPPFTFGPGTKVDIKR
notes: Hybridoma-derived fully human IgG1 kappa mAb (G1m(z)); also called C420A
Which results are given for B1?
neutralizing TNFα bioactivity (in vitro) (recombinant human TNFα [1]): 4 fold (against TNV14); fold better at blocking TNF binding to p55-sf2, against TNV118 and TNV14 (recombinant human TNFα [2]): ~4 fold; IC50 (read off the curve) (recombinant human TNFα [3]): ~4 ng/mL

B2: TNV86 (GenTNV86.14.34) (antibody, human IgG1, kappa, V domains shown)
VH: B1 VH
VL: B1 VL
notes: Hybridoma-derived fully human IgG1 kappa mAb; also called C417A
For B2, which “fold better at blocking TNF binding to p55-sf2, against TNV118 and TNV14” value (recombinant human TNFα [2]) is on record?
The value was ~4 fold.
